This passage reports fold binding ability against AdMG553 and fold binding ability against AdML-5WT results from patent publication US20200017851A1.

In test [1] the target is mesothelin (MSLN) (UniProt Q13421). As to the kind of experiment: virus binding to Panc-1 cells (MSLN strongly-positive), 4 C, E4 qPCR; reference AdMG553 (Ad5/Ad3 fiber).
Test [2] shares this target. As to the kind of experiment: virus binding to Panc-1 cells (MSLN strongly-positive), 4 C, E4 qPCR; reference AdML-5WT (native Ad5 fiber). On the technique in general: Quantitative PCR measures a nucleic acid by following its amplification.

For the substance “AdML-VTIN (isolated adenovirus with the VTINRSA (SEQ ID NO:12) motif in the AB-loop of the fiber knob) (from UniProt P11818 1-410; P11818 418-581)”, in the test with mesothelin (MSLN) [1], the fold binding ability against AdMG553 was determined as 2 fold. Also, in the test with mesothelin (MSLN) [2], the fold binding ability against AdML-5WT turned out to be 5 fold.
